1 molecule from publication doi:10.1101/554881, “LRRK2-mediated phosphorylation of HDAC6 regulates HDAC6-cytoplasmic dynein interaction and aggresome formation” (bioRxiv, 2019) can be followed below.

The target of the assay is T1, GST-tagged human LRRK2 wild type (amino acids 970-2527) (human, UniProt Q5S007 970-2527).
T1 construct: LRRK2, human, amino acids 970-2527; also called GST-LRRK2; GST-LRRK2 (aa 970-2527); source: bought: Invitrogen
Put plainly: pull-down; GST-LRRK2 (aa 970-2527; 1 µg) or GST (1 µg) incubated with His-HDAC6 (1 µg) in 250 µl RB100 buffer (25 mM HEPES pH 7.5, 100 mM KOAc, 10 mM MgCl2, 1 mM DTT, 0.05% Triton X-100, 10% glycerol) for 1 h at 4°C; captured on glutathione sepharose; immunoblot. Particulars: both partners purified.

T1 sequence (Q5S007 970-2527): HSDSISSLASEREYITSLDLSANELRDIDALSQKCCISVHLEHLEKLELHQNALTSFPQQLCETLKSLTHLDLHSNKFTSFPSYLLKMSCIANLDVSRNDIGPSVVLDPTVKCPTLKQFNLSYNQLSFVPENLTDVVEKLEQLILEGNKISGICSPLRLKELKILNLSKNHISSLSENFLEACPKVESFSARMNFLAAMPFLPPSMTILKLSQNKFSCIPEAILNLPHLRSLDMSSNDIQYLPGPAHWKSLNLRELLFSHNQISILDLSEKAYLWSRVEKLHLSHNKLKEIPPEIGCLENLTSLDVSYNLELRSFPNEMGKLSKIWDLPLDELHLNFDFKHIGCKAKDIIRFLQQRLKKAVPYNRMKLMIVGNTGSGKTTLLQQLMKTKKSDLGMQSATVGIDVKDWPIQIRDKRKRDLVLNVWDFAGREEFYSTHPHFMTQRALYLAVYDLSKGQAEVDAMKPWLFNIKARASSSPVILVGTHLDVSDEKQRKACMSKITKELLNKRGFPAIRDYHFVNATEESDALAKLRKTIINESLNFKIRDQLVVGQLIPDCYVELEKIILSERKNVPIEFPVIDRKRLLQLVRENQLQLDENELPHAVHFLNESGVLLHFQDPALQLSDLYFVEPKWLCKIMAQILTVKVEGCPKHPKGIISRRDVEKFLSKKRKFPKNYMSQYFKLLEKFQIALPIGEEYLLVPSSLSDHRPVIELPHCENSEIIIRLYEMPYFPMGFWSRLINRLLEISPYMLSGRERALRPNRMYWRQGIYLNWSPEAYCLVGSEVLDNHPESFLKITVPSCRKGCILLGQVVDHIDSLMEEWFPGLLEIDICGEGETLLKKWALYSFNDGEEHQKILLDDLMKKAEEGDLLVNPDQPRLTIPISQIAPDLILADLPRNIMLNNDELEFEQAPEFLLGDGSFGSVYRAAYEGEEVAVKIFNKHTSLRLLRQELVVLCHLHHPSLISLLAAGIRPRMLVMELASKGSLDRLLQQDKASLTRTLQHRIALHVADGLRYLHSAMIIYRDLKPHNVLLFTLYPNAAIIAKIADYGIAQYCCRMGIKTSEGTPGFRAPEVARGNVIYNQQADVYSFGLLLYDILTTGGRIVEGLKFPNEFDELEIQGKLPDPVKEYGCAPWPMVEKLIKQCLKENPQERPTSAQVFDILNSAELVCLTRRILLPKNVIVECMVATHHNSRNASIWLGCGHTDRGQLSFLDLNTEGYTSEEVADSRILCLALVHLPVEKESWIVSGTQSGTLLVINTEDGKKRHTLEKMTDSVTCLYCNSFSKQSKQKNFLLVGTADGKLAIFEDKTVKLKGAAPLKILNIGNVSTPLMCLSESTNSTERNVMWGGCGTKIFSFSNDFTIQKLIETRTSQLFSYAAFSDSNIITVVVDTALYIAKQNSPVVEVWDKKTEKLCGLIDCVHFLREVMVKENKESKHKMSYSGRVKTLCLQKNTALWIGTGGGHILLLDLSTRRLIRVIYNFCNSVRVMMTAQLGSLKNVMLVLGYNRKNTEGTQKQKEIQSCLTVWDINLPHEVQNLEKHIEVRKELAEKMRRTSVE

B1: recombinant His-tagged human HDAC6 protein (enzyme, UniProt Q9UBN7 1-1215, looked up)
chain: MTSTGQDSTTTRQRRSRQNPQSPPQDSSVTSKRNIKKGAVPRSIPNLAEVKKKGKMKKLGQAMEEDLIVGLQGMDLNLEAEALAGTGLVLDEQLNEFHCLWDDSFPEGPERLHAIKEQLIQEGLLDRCVSFQARFAEKEELMLVHSLEYIDLMETTQYMNEGELRVLADTYDSVYLHPNSYSCACLASGSVLRLVDAVLGAEIRNGMAIIRPPGHHAQHSLMDGYCMFNHVAVAARYAQQKHRIRRVLIVDWDVHHGQGTQFTFDQDPSVLYFSIHRYEQGRFWPHLKASNWSTTGFGQGQGYTINVPWNQVGMRDADYIAAFLHVLLPVALEFQPQLVLVAAGFDALQGDPKGEMAATPAGFAQLTHLLMGLAGGKLILSLEGGYNLRALAEGVSASLHTLLGDPCPMLESPGAPCRSAQASVSCALEALEPFWEVLVRSTETVERDNMEEDNVEESEEEGPWEPPVLPILTWPVLQSRTGLVYDQNMMNHCNLWDSHHPEVPQRILRIMCRLEELGLAGRCLTLTPRPATEAELLTCHSAEYVGHLRATEKMKTRELHRESSNFDSIYICPSTFACAQLATGAACRLVEAVLSGEVLNGAAVVRPPGHHAEQDAACGFCFFNSVAVAARHAQTISGHALRILIVDWDVHHGNGTQHMFEDDPSVLYVSLHRYDHGTFFPMGDEGASSQIGRAAGTGFTVNVAWNGPRMGDADYLAAWHRLVLPIAYEFNPELVLVSAGFDAARGDPLGGCQVSPEGYAHLTHLLMGLASGRIILILEGGYNLTSISESMAACTRSLLGDPPPLLTLPRPPLSGALASITETIQVHRRYWRSLRVMKVEDREGPSSSKLVTKKAPQPAKPRLAERMTTREKKVLEAGMGKVTSASFGEESTPGQTNSETAVVALTQDQPSEAATGGATLAQTISEAAIGGAMLGQTTSEEAVGGATPDQTTSEETVGGAILDQTTSEDAVGGATLGQTTSEEAVGGATLAQTTSEAAMEGATLDQTTSEEAPGGTELIQTPLASSTDHQTPPTSPVQGTTPQISPSTLIGSLRTLELGSESQGASESQAPGEENLLGEAAGGQDMADSMLMQGSRGLTDQAIFYAVTPLPWCPHLVAVCPIPAAGLDVTQPCGDCGTIQENWVCLSCYQVYCGRYINGHMLQHHGNSGHPLVLSYIDLSAWCYYCQAYVHHQALLDVKNIAHQNKFGEDMPHPH
notes: Histone deacetylase 6 (HDAC6), human, full length; also called His-HDAC6; full-length human His-HDAC6; source: bought: EMD Millipore
Consider B1, for which the binding result is listed as “binds”.
